1 substance from patent publication US20020197647A1 can be followed below.

In the assay the target is full-length c-Jun (Rattus norvegicus (Rat)) (UniProt P17325). In words: cell-based or functional assay.

“wild-type Stat3 (transfected, expression vector pRcCMV) (from UniProt P42227 1-770)” registered an IL-6 dependent response of the α2-macroglobulin luciferase reporter gene in HepG2 cells (fold) of 30 fold; an IL-6 response of the α2-macroglobulin luciferase reporter gene in HepG2 cells with increasing Stat3 and extra c-Jun (fold above background) of 4.
